In publication PMC8184850, “Cryo-EM structure of TFIIH/Rad4–Rad23–Rad33 in damaged DNA opening in nucleotide excision repair” (Nature Communications, 2021):

Columns and labels:
Settings in all cases: both partners purified
[1] = target: T1, Full-length Rad4–Rad23 complex (yeast, UniProt P14736 1-754; P32628 1-398); assay: co-sedimentation; 10–40% glycerol gradient (20 mM HEPES, 150 mM potassium acetate, 2 mM magnesium acetate, 4 mM DTT, 2 mM ATP or AMP-PNP), 52,000 rpm 6 h 35 min, 4 °C; Rad4–Rad23–Rad33 pre-assembled on −24*/+24 AAF-DNA, then added to TFIIH; fractions by SDS-PAGE
T1 construct: Rad4 (XPC homologue), yeast; Rad23 (RAD23B homologue), yeast; also called Rad4–23; yeast homologue of XPC–RAD23B
T1 sequence (looked up) 1: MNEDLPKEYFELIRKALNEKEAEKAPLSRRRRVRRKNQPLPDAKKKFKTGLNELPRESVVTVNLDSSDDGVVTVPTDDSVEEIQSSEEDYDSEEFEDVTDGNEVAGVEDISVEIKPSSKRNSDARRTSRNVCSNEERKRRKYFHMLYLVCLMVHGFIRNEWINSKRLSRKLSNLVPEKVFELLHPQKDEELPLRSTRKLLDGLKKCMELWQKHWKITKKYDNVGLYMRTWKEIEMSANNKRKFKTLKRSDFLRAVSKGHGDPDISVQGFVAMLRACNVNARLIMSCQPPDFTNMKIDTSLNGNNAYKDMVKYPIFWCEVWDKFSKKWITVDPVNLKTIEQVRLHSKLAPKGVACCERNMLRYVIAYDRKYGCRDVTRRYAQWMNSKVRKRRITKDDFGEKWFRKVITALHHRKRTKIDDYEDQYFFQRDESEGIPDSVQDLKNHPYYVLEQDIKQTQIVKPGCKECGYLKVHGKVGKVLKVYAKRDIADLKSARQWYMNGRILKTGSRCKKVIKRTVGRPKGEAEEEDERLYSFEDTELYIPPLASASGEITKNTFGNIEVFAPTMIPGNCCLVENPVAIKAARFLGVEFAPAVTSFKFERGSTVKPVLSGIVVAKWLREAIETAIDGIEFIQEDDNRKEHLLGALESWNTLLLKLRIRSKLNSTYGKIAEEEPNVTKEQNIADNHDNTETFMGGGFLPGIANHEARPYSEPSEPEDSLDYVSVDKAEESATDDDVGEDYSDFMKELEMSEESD
T1 sequence (looked up) 2: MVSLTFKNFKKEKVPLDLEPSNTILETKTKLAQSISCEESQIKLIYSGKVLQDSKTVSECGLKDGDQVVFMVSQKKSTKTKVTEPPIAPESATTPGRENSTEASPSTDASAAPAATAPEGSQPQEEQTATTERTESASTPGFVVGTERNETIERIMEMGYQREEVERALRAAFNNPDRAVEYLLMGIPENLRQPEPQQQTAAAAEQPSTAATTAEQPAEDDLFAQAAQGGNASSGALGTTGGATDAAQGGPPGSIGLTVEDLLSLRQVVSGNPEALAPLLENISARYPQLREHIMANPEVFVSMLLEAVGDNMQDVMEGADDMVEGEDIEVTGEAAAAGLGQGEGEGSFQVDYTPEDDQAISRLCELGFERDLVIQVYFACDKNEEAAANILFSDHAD

[2] = target: T2, Rad4 (yeast, UniProt P14736 1-754); assay: cryo-EM structure; coreTFIIH and Rad4–Rad23–Rad33 on −24*/+24 AAF-DNA with ATP, glycerol gradient with glutaraldehyde; Map 1 3.86 Å (TFIIH), Map 2 9.2 Å, Map 3 7.9 Å; Rad4, Rad33 and the Tfb1 PH domain placed by rigid-body docking of known structures or homology models
T2 construct: Rad4 (XPC homologue), yeast; Stood in the assays as part of Rad4–Rad23–Rad33; written alone for the contacts of the subunit; also called yeast homologue of XPC; source: Hi5 insect cells, co-expressed with Rad23, purified as the Rad4–Rad23 complex
T2 sequence (looked up): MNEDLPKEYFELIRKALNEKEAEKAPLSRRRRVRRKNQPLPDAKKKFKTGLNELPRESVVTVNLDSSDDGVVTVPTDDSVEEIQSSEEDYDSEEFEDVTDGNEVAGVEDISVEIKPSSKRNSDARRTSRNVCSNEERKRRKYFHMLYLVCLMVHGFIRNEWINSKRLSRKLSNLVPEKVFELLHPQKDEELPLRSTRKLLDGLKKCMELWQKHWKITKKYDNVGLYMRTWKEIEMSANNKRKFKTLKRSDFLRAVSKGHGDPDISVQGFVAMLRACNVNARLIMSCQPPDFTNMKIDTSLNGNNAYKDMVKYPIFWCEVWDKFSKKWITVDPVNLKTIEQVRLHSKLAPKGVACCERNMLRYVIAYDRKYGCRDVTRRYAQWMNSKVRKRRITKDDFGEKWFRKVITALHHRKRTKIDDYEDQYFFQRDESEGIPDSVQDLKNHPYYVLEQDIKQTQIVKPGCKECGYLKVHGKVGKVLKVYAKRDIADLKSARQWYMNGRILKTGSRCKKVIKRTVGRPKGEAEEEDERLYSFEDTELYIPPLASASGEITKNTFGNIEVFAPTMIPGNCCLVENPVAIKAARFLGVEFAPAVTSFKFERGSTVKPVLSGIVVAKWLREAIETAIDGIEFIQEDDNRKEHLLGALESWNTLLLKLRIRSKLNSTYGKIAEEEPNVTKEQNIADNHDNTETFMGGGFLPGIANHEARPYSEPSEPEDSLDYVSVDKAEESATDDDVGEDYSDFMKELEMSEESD

[3] = target: T3, Ssl2 (Saccharomyces cerevisiae, UniProt Q00578 1-843); assay: as above
T3 construct: Ssl2 (XPB homologue), subunit of yeast coreTFIIH; C-Ssl2 549–776, C-terminal region 771–843 as printed; Stood in the assays as part of coreTFIIH; also called yeast homologue of XPB; source: purified from yeast as a subunit of coreTFIIH
T3 sequence (looked up): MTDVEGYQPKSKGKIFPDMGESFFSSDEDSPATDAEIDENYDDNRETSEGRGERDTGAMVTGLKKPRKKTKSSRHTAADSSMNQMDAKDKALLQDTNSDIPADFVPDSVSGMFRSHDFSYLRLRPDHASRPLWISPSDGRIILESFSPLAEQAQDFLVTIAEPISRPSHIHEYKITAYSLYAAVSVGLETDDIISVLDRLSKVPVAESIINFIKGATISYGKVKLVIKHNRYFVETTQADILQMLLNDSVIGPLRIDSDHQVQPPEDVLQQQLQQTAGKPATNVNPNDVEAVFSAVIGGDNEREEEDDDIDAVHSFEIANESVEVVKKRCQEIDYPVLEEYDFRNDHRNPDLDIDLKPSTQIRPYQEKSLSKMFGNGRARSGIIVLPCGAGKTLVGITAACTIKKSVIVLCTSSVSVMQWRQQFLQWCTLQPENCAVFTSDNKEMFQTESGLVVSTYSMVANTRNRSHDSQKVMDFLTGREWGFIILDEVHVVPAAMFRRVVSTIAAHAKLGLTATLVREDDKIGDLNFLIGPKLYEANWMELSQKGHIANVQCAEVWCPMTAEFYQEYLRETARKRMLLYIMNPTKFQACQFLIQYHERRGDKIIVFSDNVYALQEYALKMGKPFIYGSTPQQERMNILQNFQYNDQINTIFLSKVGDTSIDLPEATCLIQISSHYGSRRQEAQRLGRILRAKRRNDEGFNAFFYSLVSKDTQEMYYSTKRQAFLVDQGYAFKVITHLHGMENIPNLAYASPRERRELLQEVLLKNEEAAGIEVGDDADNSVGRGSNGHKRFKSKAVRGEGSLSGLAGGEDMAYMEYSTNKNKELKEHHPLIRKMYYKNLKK

Measured: binding result

B1: Rad33 (natural protein, yeast)
chain: MSKSTNVSYERVELFENPKVPIEVEDEILEKYAESSLDHDMTVNELPRFFKDLQLEPTIWKLVRNEDVIIEGTDVIDFTKLVRCTCQLLILMNNLTVIDDLWSMLIRNCGRDVDFPQVALRDHVLSVKDLQKISNLIGADQSSGTIEMISCATDGKRLFMTYLDFGCVLGKLGYLKM
notes: Rad33 (CETN2 homologue), yeast; plasmid pETDuet-RAD33; also called yeast homologue of CETN2; source: E. coli Rosetta(DE3), purified (HisTrap, Q column)
binds: [1] | [2] | [3]
